Assay results as given in the supplement of paper PMC9112550, “Optimization of the antimicrobial peptide Bac7 by deep mutational scanning” (BMC Biology, 2022).

Each sequence was assayed on Escherichia coli TOP10 (assay: shrunken log2 fold change of peptide-encoding DNA abundance (4.5 h post-induction vs induction); higher = less antimicrobial activity (less host growth inhibition)). Details: time post-induction: 4.5 h; library: site-saturation at positions 5, 18, 19, 20.
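Also: peptides expressed intracellularly from a pBAD plasmid library in pooled LB shake-flask culture, induced with 0.3% L-arabinose, DNA abundance read by NGS, three biological replicates, DESeq2 with apeglm shrinkage.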

Sequence | shrunken log2 fold change
RRIRYRPPRLPRPRPRPPIWPRP | -0.0337
RRIRIRPPRLPRPRPRPRHQPRP | -0.289
RRIRERPPRLPRPRPRPIIGPRP | -0.249
RRIRIRPPRLPRPRPRPHSLPRP | 0.0644
RRIRYRPPRLPRPRPRPCMAPRP | -0.117
RRIRKRPPRLPRPRPRPQLEPRP | 0.327
RRIRARPPRLPRPRPRPGMYPRP | -0.111
RRIRNRPPRLPRPRPRPHDGPRP | -0.378
RRIRRRPPRLPRPRPRPPERPRP | 0.643
RRIRQRPPRLPRPRPRPPKMPRP | -0.0821
RRIRTRPPRLPRPRPRPFIRPRP | 0.00496
RRIRGRPPRLPRPRPRPWIAPRP | -0.0596
RRIRHRPPRLPRPRPRPATNPRP | 0.607
RRIRPRPPRLPRPRPRPWHAPRP | -0.0857
RRIRSRPPRLPRPRPRPNWWPRP | 0.022
RRIRYRPPRLPRPRPRPGDRPRP | 0.196
RRIRARPPRLPRPRPRPVEVPRP | 0.236
RRIRSRPPRLPRPRPRPCACPRP | -0.0721
RRIRLRPPRLPRPRPRPWTLPRP | 0.00677
RRIRCRPPRLPRPRPRPKTFPRP | -0.138
RRIRHRPPRLPRPRPRPGQNPRP | -0.226
RRIRNRPPRLPRPRPRPWCFPRP | -0.472
RRIRPRPPRLPRPRPRPGEAPRP | 0.426
RRIRLRPPRLPRPRPRPCSAPRP | -0.372
RRIRTRPPRLPRPRPRPCRQPRP | -0.303

Sequence | shrunken log2 fold change
RRIRERPPRLPRPRPRPLYMPRP | -0.748
RRIRMRPPRLPRPRPRPGSWPRP | 0.858
RRIRTRPPRLPRPRPRPWFRPRP | -0.128
RRIRTRPPRLPRPRPRPACTPRP | 0.212
RRIRARPPRLPRPRPRPLQEPRP | 0.604
RRIRSRPPRLPRPRPRPIALPRP | -0.385
RRIRKRPPRLPRPRPRPGYNPRP | 0.178
RRIRYRPPRLPRPRPRPRNLPRP | -0.036
RRIRHRPPRLPRPRPRPDAVPRP | 0.0938
RRIRNRPPRLPRPRPRPWVWPRP | -0.115
RRIRYRPPRLPRPRPRPAITPRP | -0.933
RRIRTRPPRLPRPRPRPNDMPRP | -0.209
RRIRERPPRLPRPRPRPCQMPRP | -0.161
RRIRERPPRLPRPRPRPHSFPRP | 0.0142
RRIRVRPPRLPRPRPRPCYYPRP | -0.147
RRIRIRPPRLPRPRPRPIHYPRP | -0.791
RRIRERPPRLPRPRPRPLVDPRP | -0.135
RRIRFRPPRLPRPRPRPLKGPRP | -0.128
RRIRWRPPRLPRPRPRPWGMPRP | -0.246
RRIRYRPPRLPRPRPRPIMRPRP | 0.0675
RRIRDRPPRLPRPRPRPTMMPRP | 0.338
RRIRPRPPRLPRPRPRPIKSPRP | -0.0993
RRIRHRPPRLPRPRPRPKTAPRP | 0.0497
RRIRSRPPRLPRPRPRPIGLPRP | 0.074
RRIRCRPPRLPRPRPRPAALPRP | 0.219

Sequence | shrunken log2 fold change
RRIRNRPPRLPRPRPRPFWWPRP | -0.0225
RRIRKRPPRLPRPRPRPPALPRP | 0.57
RRIRFRPPRLPRPRPRPRRWPRP | 0.934
RRIRDRPPRLPRPRPRPLMHPRP | 0.164
RRIRPRPPRLPRPRPRPQWMPRP | 0.00643
RRIRWRPPRLPRPRPRPIFGPRP | 0.0623
RRIRMRPPRLPRPRPRPFVVPRP | -0.254
RRIRWRPPRLPRPRPRPIREPRP | 0.411
RRIRLRPPRLPRPRPRPVNWPRP | 0.0772
RRIRERPPRLPRPRPRPMWDPRP | -0.0758
RRIRTRPPRLPRPRPRPTLPPRP | 0.149
RRIRCRPPRLPRPRPRPYFRPRP | -0.759
RRIRSRPPRLPRPRPRPDLFPRP | 0.256
RRIRYRPPRLPRPRPRPKEAPRP | -0.0135
RRIRLRPPRLPRPRPRPSVAPRP | -0.0589
RRIRRRPPRLPRPRPRPDATPRP | 1.32
RRIRCRPPRLPRPRPRPLWFPRP | -0.315
RRIRIRPPRLPRPRPRPFGFPRP | -0.694
RRIRDRPPRLPRPRPRPWYWPRP | 0.000762
RRIRFRPPRLPRPRPRPWPSPRP | -0.0611
RRIRWRPPRLPRPRPRPQWCPRP | -0.0974
RRIRGRPPRLPRPRPRPRNCPRP | 0.0949
RRIRCRPPRLPRPRPRPIPCPRP | -0.489
RRIRARPPRLPRPRPRPWKYPRP | -0.408
RRIRSRPPRLPRPRPRPRLKPRP | -0.0978

Sequence | shrunken log2 fold change
RRIRGRPPRLPRPRPRPDTRPRP | 0.162
RRIRLRPPRLPRPRPRPMRNPRP | 0.372
RRIRQRPPRLPRPRPRPGKEPRP | 0.00212
RRIRRRPPRLPRPRPRPFQCPRP | -0.00197
RRIRARPPRLPRPRPRPTRPPRP | 0.764
RRIRYRPPRLPRPRPRPATTPRP | -0.415
RRIRKRPPRLPRPRPRPSVDPRP | 0.0884
RRIRFRPPRLPRPRPRPMPRPRP | 0.513
RRIRPRPPRLPRPRPRPYNQPRP | -0.429
RRIRARPPRLPRPRPRPECQPRP | 0.333
RRIRRRPPRLPRPRPRPYKCPRP | -0.639
RRIRSRPPRLPRPRPRPTTFPRP | -0.272
RRIRCRPPRLPRPRPRPAAVPRP | 0.346
RRIRVRPPRLPRPRPRPMFYPRP | -0.725
RRIRHRPPRLPRPRPRPFMMPRP | -0.272
RRIRLRPPRLPRPRPRPILKPRP | 0.0777
RRIRMRPPRLPRPRPRPFNAPRP | 0.00535
RRIRHRPPRLPRPRPRPISDPRP | -0.179
RRIRVRPPRLPRPRPRPFTYPRP | -0.105
RRIRIRPPRLPRPRPRPGRYPRP | -0.0696
RRIRGRPPRLPRPRPRPYAEPRP | 1.19
RRIRYRPPRLPRPRPRPEQLPRP | -0.0122
RRIRQRPPRLPRPRPRPDLEPRP | -0.0293
RRIRQRPPRLPRPRPRPNKFPRP | -0.896
RRIRMRPPRLPRPRPRPEVPPRP | 1.33

Sequence | shrunken log2 fold change
RRIRVRPPRLPRPRPRPIRLPRP | -0.419
RRIRLRPPRLPRPRPRPPPPPRP | 1.55
RRIRIRPPRLPRPRPRPRVHPRP | -0.0227
RRIRQRPPRLPRPRPRPWMQPRP | -0.062
RRIRTRPPRLPRPRPRPGGHPRP | 0.0329
RRIRWRPPRLPRPRPRPDVKPRP | -0.26
RRIRWRPPRLPRPRPRPRQEPRP | 0.0591
RRIRQRPPRLPRPRPRPFWTPRP | -0.166
RRIRERPPRLPRPRPRPQNVPRP | 0.16
RRIRMRPPRLPRPRPRPSVRPRP | -0.00857
RRIRERPPRLPRPRPRPCGSPRP | 0.0206
RRIRNRPPRLPRPRPRPYNVPRP | -0.526
RRIRFRPPRLPRPRPRPWFVPRP | -0.283
RRIRYRPPRLPRPRPRPLYIPRP | -0.999
RRIRERPPRLPRPRPRPQMEPRP | 0.00522
RRIRTRPPRLPRPRPRPVEHPRP | 0.0387
RRIRLRPPRLPRPRPRPFCCPRP | -0.255
RRIRMRPPRLPRPRPRPQYRPRP | -0.0939
RRIRARPPRLPRPRPRPNLFPRP | -0.0329
RRIRSRPPRLPRPRPRPWAYPRP | -0.107
RRIRHRPPRLPRPRPRPKPGPRP | 0.21
RRIRRRPPRLPRPRPRPEQTPRP | -0.01
RRIRIRPPRLPRPRPRPQCHPRP | -0.594
RRIRNRPPRLPRPRPRPPFSPRP | 0.032
RRIRYRPPRLPRPRPRPTSRPRP | -0.0257

Sequence | shrunken log2 fold change
RRIRYRPPRLPRPRPRPSFWPRP | -0.122
RRIRYRPPRLPRPRPRPGILPRP | -0.0404
RRIRIRPPRLPRPRPRPTTWPRP | -0.165
RRIRDRPPRLPRPRPRPNLVPRP | -0.0615
RRIRRRPPRLPRPRPRPNQQPRP | -0.0676
RRIRERPPRLPRPRPRPFSCPRP | 0.0263
RRIRMRPPRLPRPRPRPDWDPRP | 0.211
RRIRSRPPRLPRPRPRPTLLPRP | 0.227
RRIRSRPPRLPRPRPRPPKKPRP | 0.282
RRIRHRPPRLPRPRPRPMAKPRP | -0.124
RRIRTRPPRLPRPRPRPQGMPRP | 0.0427
RRIRERPPRLPRPRPRPWYMPRP | -0.386
RRIRKRPPRLPRPRPRPGLKPRP | 0.377
RRIRNRPPRLPRPRPRPTEWPRP | 0.0839
RRIRDRPPRLPRPRPRPEADPRP | 1.93
RRIRKRPPRLPRPRPRPHSWPRP | 0.0385
RRIRCRPPRLPRPRPRPGETPRP | 0.238
RRIRPRPPRLPRPRPRPAMMPRP | -0.214
RRIRCRPPRLPRPRPRPKQMPRP | 0.364
RRIRGRPPRLPRPRPRPKPFPRP | 0.601
RRIRHRPPRLPRPRPRPQLGPRP | 0.375
RRIRVRPPRLPRPRPRPLERPRP | -0.0607
RRIRTRPPRLPRPRPRPFYIPRP | -0.57
RRIRTRPPRLPRPRPRPFEWPRP | -0.0651
RRIRLRPPRLPRPRPRPFAWPRP | -0.00134
